Results taken from patent US20230192860A1 (published 2023).

Key:
[1] = target: T1, monovalent hVISTA-ECD (amino acids 32-193 of SEQ ID NO: 1 with a 7xHis tail) (UniProt Q9H7M9 33-193); experiment: SPR; pH 6.7
[2] = target: T1, monovalent hVISTA-ECD (amino acids …); experiment: SPR; pH 7.4
[3] = target: T1, monovalent hVISTA-ECD (amino acids …); experiment: SPR; pH 6.0
[4] = target: T1, monovalent hVISTA-ECD (amino acids …); experiment: SPR; pH 6.0; remark: listed apart in the source
[5] = target: T1, monovalent hVISTA-ECD (amino acids …); experiment: SPR; pH 6.7; remark: listed apart in the source

T1 sequence (Q9H7M9 other isoform, or with tags, fused parts or gaps): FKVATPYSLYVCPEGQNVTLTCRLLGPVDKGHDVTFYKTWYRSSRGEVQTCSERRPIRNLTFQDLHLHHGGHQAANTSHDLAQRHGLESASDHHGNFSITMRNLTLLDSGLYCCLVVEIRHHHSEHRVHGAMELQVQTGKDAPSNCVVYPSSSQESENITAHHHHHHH

Kd [1]	Kd [2]	Kd [3]	Kd [4]	Kd [5]	Binder
2.3 nM	41 nM	0.23 nM			P1-068761_H100G_E100fF (antibody, V domains shown) VH: EVQLVESGGGLVQPGKSLRLSCAASGFTLEDEAMHWVRQAPGKGLEWVSGINWNSEEIGYADSVKGRFTISRDNAKNSLYLQMNSLRTEDTALYYCAKVPGYSGGWIDAFDVWGQGTMVTVSS VL: not shown
			62 nM		P1-068767_E55A_E100fF (antibody, V domains shown) VH: EVQLVESGGGLVQPGKSLRLSCAASGFTLEDYAMHWVRQAPGKGLEWVSGIDWNSANIGYADSVKGRFTISRDNAKNSLYLQMNSLRTEDTALYYCAKVPGYSGGWIDAFDDWGQGTMVTVSS VL: not shown
			3.2 nM	210 nM	P1-070906 (P1-068767_D52N) (antibody, V domains shown) VH: EVQLVESGGGLVQPGKSLRLSCAASGFTLEDYAMHWVRQAPGKGLEWVSGINWNSENIGYADSVKGRFTISRDNAKNSLYLQMNSLRTEDTALYYCAKVPGYSGGWIDAEDDWGQGTMVTVSS VL: not shown
1.6 nM	18 nM	0.21 nM			P1-068761_E32Y (antibody, V domains shown) VH: EVQLVESGGGLVQPGKSLRLSCAASGFTLEDYAMHWVRQAPGKGLEWVSGINWNSEEIGYADSVKGRFTISRDNAKNSLYLQMNSLRTEDTALYYCAKVPGYSHGWIDAEDVWGQGTMVTVSS VL: not shown
		10 nM			P1-070900 (P1-068761_E56N_H100G) (antibody, V domains shown) VH: EVQLVESGGGLVQPGKSLRLSCAASGFTLEDEAMHWVRQAPGKGLEWVSGINWNSENIGYADSVKGRFTISRDNAKNSLYLQMNSLRTEDTALYYCAKVPGYSGGWIDAEDVWGQGTMVTVSS VL: not shown
			20 nM	~39 nM	P1-068767_D52N_E100fF (antibody, V domains shown) VH: EVQLVESGGGLVQPGKSLRLSCAASGFTLEDYAMHWVRQAPGKGLEWVSGINWNSENIGYADSVKGRFTISRDNAKNSLYLQMNSLRTEDTALYYCAKVPGYSGGWIDAFDDWGQGTMVTVSS VL: not shown
			5.7 nM	380 nM	P1-070908 (P1-068767_E55A) (antibody, V domains shown) VH: EVQLVESGGGLVQPGKSLRLSCAASGFTLEDYAMHWVRQAPGKGLEWVSGIDWNSANIGYADSVKGRFTISRDNAKNSLYLQMNSLRTEDTALYYCAKVPGYSGGWIDAEDDWGQGTMVTVSS VL: not shown
120 nM		3.4 nM			P1-070868 (P1-068761_E55A) (antibody, V domains shown) VH: EVQLVESGGGLVQPGKSLRLSCAASGFTLEDEAMHWVRQAPGKGLEWVSGINWNSAEIGYADSVKGRFTISRDNAKNSLYLQMNSLRTEDTALYYCAKVPGYSHGWIDAEDVWGQGTMVTVSS VL: not shown
5 nM	72 nM	0.48 nM			P1-068761_E32Y_H100G (antibody, V domains shown) VH: EVQLVESGGGLVQPGKSLRLSCAASGFTLEDYAMHWVRQAPGKGLEWVSGINWNSEEIGYADSVKGRFTISRDNAKNSLYLQMNSLRTEDTALYYCAKVPGYSGGWIDAEDVWGQGTMVTVSS VL: not shown
~8200 nM		19 nM			P1-070870 (P1-068761_E56N) (antibody, V domains shown) VH: EVQLVESGGGLVQPGKSLRLSCAASGFTLEDEAMHWVRQAPGKGLEWVSGINWNSENIGYADSVKGRFTISRDNAKNSLYLQMNSLRTEDTALYYCAKVPGYSHGWIDAEDVWGQGTMVTVSS VL: not shown
			~42 nM	5200 nM	P1-068767_E100fF (antibody, V domains shown) VH: EVQLVESGGGLVQPGKSLRLSCAASGFTLEDYAMHWVRQAPGKGLEWVSGIDWNSENIGYADSVKGRFTISRDNAKNSLYLQMNSLRTEDTALYYCAKVPGYSGGWIDAFDDWGQGTMVTVSS VL: not shown
			4 nM	120 nM	P1-070916 (P1-068767_D52N_E55A) (antibody, V domains shown) VH: EVQLVESGGGLVQPGKSLRLSCAASGFTLEDYAMHWVRQAPGKGLEWVSGINWNSANIGYADSVKGRFTISRDNAKNSLYLQMNSLRTEDTALYYCAKVPGYSGGWIDAEDDWGQGTMVTVSS VL: not shown
~81 nM		15 nM			P1-068761_E30D_H100G (antibody, V domains shown) VH: EVQLVESGGGLVQPGKSLRLSCAASGFTLDDEAMHWVRQAPGKGLEWVSGINWNSEEIGYADSVKGRFTISRDNAKNSLYLQMNSLRTEDTALYYCAKVPGYSGGWIDAEDVWGQGTMVTVSS VL: not shown
~32 nM		50 nM			P1-068761_E30D_E56N (antibody, V domains shown) VH: EVQLVESGGGLVQPGKSLRLSCAASGFTLDDEAMHWVRQAPGKGLEWVSGINWNSENIGYADSVKGRFTISRDNAKNSLYLQMNSLRTEDTALYYCAKVPGYSHGWIDAEDVWGQGTMVTVSS VL: not shown
2 nM	23 nM	0.31 nM			P1-068761_E32Y_E55A (antibody, V domains shown) VH: EVQLVESGGGLVQPGKSLRLSCAASGFTLEDYAMHWVRQAPGKGLEWVSGINWNSAEIGYADSVKGRFTISRDNAKNSLYLQMNSLRTEDTALYYCAKVPGYSHGWIDAEDVWGQGTMVTVSS VL: not shown
			8.3 nM		P1-070922 (P1-068767_E30D_E55A) (antibody, V domains shown) VH: EVQLVESGGGLVQPGKSLRLSCAASGFTLDDYAMHWVRQAPGKGLEWVSGIDWNSANIGYADSVKGRFTISRDNAKNSLYLQMNSLRTEDTALYYCAKVPGYSGGWIDAEDDWGQGTMVTVSS VL: not shown
6.5 nM	65 nM	1.4 nM			P1-068761_E56N_E100fF (antibody, V domains shown) VH: EVQLVESGGGLVQPGKSLRLSCAASGFTLEDEAMHWVRQAPGKGLEWVSGINWNSENIGYADSVKGRFTISRDNAKNSLYLQMNSLRTEDTALYYCAKVPGYSHGWIDAFDVWGQGTMVTVSS VL: not shown
210 nM		21 nM			P1-070878 (P1-068761_E55A_E56N) (antibody, V domains shown) VH: EVQLVESGGGLVQPGKSLRLSCAASGFTLEDEAMHWVRQAPGKGLEWVSGINWNSANIGYADSVKGRFTISRDNAKNSLYLQMNSLRTEDTALYYCAKVPGYSHGWIDAEDVWGQGTMVTVSS VL: not shown
			~82 nM	10000 nM	P1-068767_E30D_E100fF (antibody, V domains shown) VH: EVQLVESGGGLVQPGKSLRLSCAASGFTLDDYAMHWVRQAPGKGLEWVSGIDWNSENIGYADSVKGRFTISRDNAKNSLYLQMNSLRTEDTALYYCAKVPGYSGGWIDAFDDWGQGTMVTVSS VL: not shown
1.3 nM	20 nM	0.19 nM			P1-068761_E100fF (antibody, V domains shown) VH: EVQLVESGGGLVQPGKSLRLSCAASGFTLEDEAMHWVRQAPGKGLEWVSGINWNSEEIGYADSVKGRFTISRDNAKNSLYLQMNSLRTEDTALYYCAKVPGYSHGWIDAFDVWGQGTMVTVSS VL: not shown
370 nM		8.3 nM			P1-070864 (P1-068761_E30D) (antibody, V domains shown) VH: EVQLVESGGGLVQPGKSLRLSCAASGFTLDDEAMHWVRQAPGKGLEWVSGINWNSEEIGYADSVKGRFTISRDNAKNSLYLQMNSLRTEDTALYYCAKVPGYSHGWIDAEDVWGQGTMVTVSS VL: not shown
1.1 nM	3.7 nM	0.25 nM			P1-068761_E32Y_E100fF (antibody, V domains shown) VH: EVQLVESGGGLVQPGKSLRLSCAASGFTLEDYAMHWVRQAPGKGLEWVSGINWNSEEIGYADSVKGRFTISRDNAKNSLYLQMNSLRTEDTALYYCAKVPGYSHGWIDAFDVWGQGTMVTVSS VL: not shown
~110 nM		12 nM			P1-070890 (P1-068761_E30D_E55A) (antibody, V domains shown) VH: EVQLVESGGGLVQPGKSLRLSCAASGFTLDDEAMHWVRQAPGKGLEWVSGINWNSAEIGYADSVKGRFTISRDNAKNSLYLQMNSLRTEDTALYYCAKVPGYSHGWIDAEDVWGQGTMVTVSS VL: not shown
3.7 nM	48 nM	0.43 nM			P1-068761_E30D_E100fF (antibody, V domains shown) VH: EVQLVESGGGLVQPGKSLRLSCAASGFTLDDEAMHWVRQAPGKGLEWVSGINWNSEEIGYADSVKGRFTISRDNAKNSLYLQMNSLRTEDTALYYCAKVPGYSHGWIDAFDVWGQGTMVTVSS VL: not shown
71 nM		2.6 nM			P1-068761.IgG1.3 (antibody, V domains shown) VH: EVQLVESGGGLVQPGKSLRLSCAASGFTLEDEAMHWVRQAPGKGLEWVSGINWNSEEIGYADSVKGRFTISRDNAKNSLYLQMNSLRTEDTALYYCAKVPGYSHGWIDAEDVWGQGTMVTVSS VL: not shown
230 nM		4.4 nM			P1-070872 (P1-068761_H100G) (antibody, V domains shown) VH: EVQLVESGGGLVQPGKSLRLSCAASGFTLEDEAMHWVRQAPGKGLEWVSGINWNSEEIGYADSVKGRFTISRDNAKNSLYLQMNSLRTEDTALYYCAKVPGYSGGWIDAEDVWGQGTMVTVSS VL: not shown
			9.6 nM		P1-070904 (P1-068767_E30D) (antibody, V domains shown) VH: EVQLVESGGGLVQPGKSLRLSCAASGFTLDDYAMHWVRQAPGKGLEWVSGIDWNSENIGYADSVKGRFTISRDNAKNSLYLQMNSLRTEDTALYYCAKVPGYSGGWIDAEDDWGQGTMVTVSS VL: not shown
			5.8 nM	120 nM	P1-070914 (P1-068767_E30D_D52N) (antibody, V domains shown) VH: EVQLVESGGGLVQPGKSLRLSCAASGFTLDDYAMHWVRQAPGKGLEWVSGINWNSENIGYADSVKGRFTISRDNAKNSLYLQMNSLRTEDTALYYCAKVPGYSGGWIDAEDDWGQGTMVTVSS VL: not shown
